Reference: paper PMC9779362, “The J Domain of Sacsin Disrupts Intermediate Filament Assembly” (International Journal of Molecular Sciences, 2022)

Biological target: the molecule itself
Assay: negative-stain transmission electron microscopy of in vitro assembly; purified NFL (0.24 µg/µL) dialysed stepwise out of urea into assembly buffer, overnight at 4 °C; 2% uranyl acetate

B1: recombinant human NFL (neurofilament light chain) (natural protein, UniProt P07196 1-543, looked up)
chain: MSSFSYEPYYSTSYKRRYVETPRVHISSVRSGYSTARSAYSSYSAPVSSSLSVRRSYSSSSGSLMPSLENLDLSQVAAISNDLKSIRTQEKAQLQDLNDRFASFIERVHELEQQNKVLEAELLVLRQKHSEPSRFRALYEQEIRDLRLAAEDATNEKQALQGEREGLEETLRNLQARYEEEVLSREDAEGRLMEARKGADEAALARAELEKRIDSLMDEISFLKKVHEEEIAELQAQIQYAQISVEMDVTKPDLSAALKDIRAQYEKLAAKNMQNAEEWFKSRFTVLTESAAKNTDAVRAAKDEVSESRRLLKAKTLEIEACRGMNEALEKQLQELEDKQNADISAMQDTINKLENELRTTKSEMARYLKEYQDLLNVKMALDIEIAAYRKLLEGEETRLSFTSVGSITSGYSQSSQVFGRSAYGGLQTSSYLMSTRSFPSYYTSHVQEEQIEVEETIEAAKAEEAKDEPPSEGEAEEEEKDKEEAEEEEAAEEEEAAKEESEEAKEEEEGGEGEEGEETKEAEEEEKKVEGAGEEQAAKKKD
notes: neurofilament light polypeptide (NFL), human, cloned into pET23b (gift of Dr. Walter Mushynski); Used as assembled filaments (TEM, sedimentation) and as the soluble fraction after centrifugation (pull-down); also called soluble recombinant NFL; source: bacteria (pET23b), inclusion bodies solubilised in 8 M urea, purified on hydroxyapatite, dialysed into assembly buffer
- binding result: binds
